# Legend:
# [1] = molecular target: α5β1 integrin on human lung fibroblasts (human) (UniProt P08648); test: cell-based or functional assay
# [2] = molecular target: αvβ3 integrin on human lung fibroblasts (human) (UniProt P06756); test: cell-based or functional assay
# Sequence of UniProt P06756 (P06756 31-1048, chain 1 of 2): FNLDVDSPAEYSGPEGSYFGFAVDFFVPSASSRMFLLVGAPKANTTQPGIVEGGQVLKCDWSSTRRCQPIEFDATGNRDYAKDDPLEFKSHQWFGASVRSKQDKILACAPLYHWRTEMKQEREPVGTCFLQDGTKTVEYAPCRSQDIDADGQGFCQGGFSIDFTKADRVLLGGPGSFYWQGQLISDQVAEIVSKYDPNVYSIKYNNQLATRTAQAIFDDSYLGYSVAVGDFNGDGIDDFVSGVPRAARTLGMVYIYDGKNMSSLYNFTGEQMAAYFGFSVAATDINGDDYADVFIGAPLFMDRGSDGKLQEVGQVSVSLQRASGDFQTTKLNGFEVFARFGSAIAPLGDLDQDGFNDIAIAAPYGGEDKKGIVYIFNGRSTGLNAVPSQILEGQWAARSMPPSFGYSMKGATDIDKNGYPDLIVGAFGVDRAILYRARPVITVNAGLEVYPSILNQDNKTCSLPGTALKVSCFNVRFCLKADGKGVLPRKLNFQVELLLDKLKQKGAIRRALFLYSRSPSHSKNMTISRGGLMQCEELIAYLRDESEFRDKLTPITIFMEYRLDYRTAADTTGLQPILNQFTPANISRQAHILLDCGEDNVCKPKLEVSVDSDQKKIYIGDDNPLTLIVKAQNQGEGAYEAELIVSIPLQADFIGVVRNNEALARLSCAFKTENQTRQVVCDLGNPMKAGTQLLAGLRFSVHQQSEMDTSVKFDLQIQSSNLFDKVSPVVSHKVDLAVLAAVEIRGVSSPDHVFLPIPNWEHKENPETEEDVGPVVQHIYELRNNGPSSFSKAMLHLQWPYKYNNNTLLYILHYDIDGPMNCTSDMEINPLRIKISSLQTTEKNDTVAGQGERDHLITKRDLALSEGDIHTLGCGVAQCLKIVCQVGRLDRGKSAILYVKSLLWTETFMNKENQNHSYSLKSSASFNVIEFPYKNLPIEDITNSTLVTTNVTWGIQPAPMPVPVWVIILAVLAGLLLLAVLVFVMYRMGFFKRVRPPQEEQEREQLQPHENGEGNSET
# Sequence of UniProt P06756 (P05106 27-788, chain 2 of 2, further chain): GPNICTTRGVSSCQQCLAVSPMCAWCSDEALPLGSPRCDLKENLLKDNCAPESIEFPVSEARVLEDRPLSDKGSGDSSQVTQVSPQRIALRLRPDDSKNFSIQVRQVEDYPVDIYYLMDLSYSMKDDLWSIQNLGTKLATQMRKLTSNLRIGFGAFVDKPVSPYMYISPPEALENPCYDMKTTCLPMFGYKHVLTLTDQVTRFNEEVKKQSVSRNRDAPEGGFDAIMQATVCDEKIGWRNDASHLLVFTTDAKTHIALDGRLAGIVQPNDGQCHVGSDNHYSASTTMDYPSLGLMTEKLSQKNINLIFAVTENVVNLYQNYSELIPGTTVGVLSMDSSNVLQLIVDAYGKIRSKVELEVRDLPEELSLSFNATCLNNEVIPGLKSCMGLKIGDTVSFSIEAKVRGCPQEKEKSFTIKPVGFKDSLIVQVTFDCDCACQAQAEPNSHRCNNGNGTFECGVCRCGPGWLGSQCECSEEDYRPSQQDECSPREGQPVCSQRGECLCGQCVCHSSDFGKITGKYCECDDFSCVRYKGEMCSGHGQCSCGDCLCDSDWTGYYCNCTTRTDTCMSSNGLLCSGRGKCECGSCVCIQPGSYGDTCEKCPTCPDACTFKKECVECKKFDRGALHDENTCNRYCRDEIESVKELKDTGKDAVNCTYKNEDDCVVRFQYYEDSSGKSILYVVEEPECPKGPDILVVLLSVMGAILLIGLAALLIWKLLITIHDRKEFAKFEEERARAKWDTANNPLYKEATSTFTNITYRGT
# Sequence of UniProt P08648 (P08648 42-1049, chain 1 of 2): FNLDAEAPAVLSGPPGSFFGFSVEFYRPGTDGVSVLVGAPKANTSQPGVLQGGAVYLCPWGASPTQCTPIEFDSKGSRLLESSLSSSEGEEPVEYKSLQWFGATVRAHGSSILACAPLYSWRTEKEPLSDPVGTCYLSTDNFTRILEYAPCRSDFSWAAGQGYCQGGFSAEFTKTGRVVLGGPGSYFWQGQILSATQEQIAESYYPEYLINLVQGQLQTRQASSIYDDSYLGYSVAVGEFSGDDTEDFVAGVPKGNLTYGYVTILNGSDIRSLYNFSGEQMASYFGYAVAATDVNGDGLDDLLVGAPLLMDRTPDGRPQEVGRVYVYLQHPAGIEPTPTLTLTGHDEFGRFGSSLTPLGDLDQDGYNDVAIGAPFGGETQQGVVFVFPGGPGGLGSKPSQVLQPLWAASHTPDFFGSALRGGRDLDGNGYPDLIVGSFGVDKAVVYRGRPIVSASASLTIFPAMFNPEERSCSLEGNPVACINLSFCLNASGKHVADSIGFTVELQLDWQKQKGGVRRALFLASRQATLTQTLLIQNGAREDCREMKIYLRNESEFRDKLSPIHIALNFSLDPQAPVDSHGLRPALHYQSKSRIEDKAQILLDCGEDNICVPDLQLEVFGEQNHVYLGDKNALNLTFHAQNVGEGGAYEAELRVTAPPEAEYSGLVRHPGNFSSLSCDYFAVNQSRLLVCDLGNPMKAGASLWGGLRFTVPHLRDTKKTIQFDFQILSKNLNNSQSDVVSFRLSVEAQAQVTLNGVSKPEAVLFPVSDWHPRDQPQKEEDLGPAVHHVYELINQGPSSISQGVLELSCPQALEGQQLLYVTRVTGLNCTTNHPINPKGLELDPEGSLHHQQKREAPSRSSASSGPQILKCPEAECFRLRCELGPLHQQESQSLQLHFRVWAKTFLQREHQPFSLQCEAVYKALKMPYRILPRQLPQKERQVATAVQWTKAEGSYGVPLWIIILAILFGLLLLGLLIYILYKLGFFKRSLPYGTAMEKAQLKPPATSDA
# Sequence of UniProt P08648 (P05556 21-798, chain 2 of 2, further chain): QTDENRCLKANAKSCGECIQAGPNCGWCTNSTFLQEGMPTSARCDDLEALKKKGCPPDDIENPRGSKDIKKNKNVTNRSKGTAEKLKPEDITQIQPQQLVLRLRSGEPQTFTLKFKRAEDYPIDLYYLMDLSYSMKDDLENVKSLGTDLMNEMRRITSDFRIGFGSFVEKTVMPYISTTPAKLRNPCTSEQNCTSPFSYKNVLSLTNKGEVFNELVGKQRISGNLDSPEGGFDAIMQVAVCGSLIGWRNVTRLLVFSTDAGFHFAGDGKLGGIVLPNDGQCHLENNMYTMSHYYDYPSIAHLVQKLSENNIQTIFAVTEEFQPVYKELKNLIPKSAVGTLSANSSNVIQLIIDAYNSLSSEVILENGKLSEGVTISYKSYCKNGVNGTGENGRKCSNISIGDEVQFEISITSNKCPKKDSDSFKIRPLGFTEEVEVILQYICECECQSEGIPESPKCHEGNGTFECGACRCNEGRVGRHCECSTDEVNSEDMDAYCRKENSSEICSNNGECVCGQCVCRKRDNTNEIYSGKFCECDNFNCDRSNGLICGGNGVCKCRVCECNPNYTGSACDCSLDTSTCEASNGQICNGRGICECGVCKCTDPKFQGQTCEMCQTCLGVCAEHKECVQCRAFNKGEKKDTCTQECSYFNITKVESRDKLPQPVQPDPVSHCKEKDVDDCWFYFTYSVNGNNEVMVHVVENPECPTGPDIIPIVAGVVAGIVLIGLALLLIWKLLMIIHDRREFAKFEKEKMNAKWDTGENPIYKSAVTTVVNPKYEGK
"average fibroblast spread area on Fn9*10 hydrogels (all stiffness and viscoelasticity groups, 3 days) [1] [µm^2]",fibroblast spread area on soft elastic Fn4G hydrogels (3 days) [2] [µm^2],Substance
780,–,Fn9*10 (recombinant fibronectin fragment of FnIII9 and FnIII10 with a leucine to proline point mutation at position 1408) (ligand)
–,2060,Fn4G (recombinant fibronectin fragment of FnIII9 and FnIII10 with four glycine residues inserted in the linker region between them) (ligand)
